Measurements as given in the DeepSol protein solubility set.

Experiment: soluble on expression in E. coli; label from the status in PepcDB or PDB records

Sequence	soluble on expression in E. coli
MRISGVTLFRVSSQLRNVVNGQWTTTHYTVKDRSTDPRWKDVDLARESDVYDVVIVGGGPSGLSAAIRLRQLAEKAQKELRVCVVEKASVIGGHTLSGAVIETRALDELIPNWKELGAPVYQQVTSESIAILTESGRIPVPVLPGVPLANHGNYIVRLGKVVQWLGEQAEAAGVEVWPEIAASEVLYNEDGSVKGIATSDVGIGKDGAPKDGFARGMEFHAKCTIFAEGCRGHLSKQVLDKFDLRTHAMTYGIGLKELWEIDPAKHRPGYVEHTMGWPLNVDQYGGSFLYHIEDQGQPLVSVGFVVALDYANPNLNPYKEFQKYKTHPSISKQLEGGKRIGYGARALNEGGFQSIPKLHFPGGCLVGCSAGFLNVAKLKGTHNAMKSGMVAAESIFEDIQQKGEDVQTIDPATYDKNIRDTYVVKELKATRNIRPSFNTSLGYIGGLIYSGIFYVFGRGIEPWTLGHGKKDNEKLIPVKDAKEIDYPKPDGKLTFDLLTSVSLTGTNHTEDQPAHLTLKNDQVPLDVNLAVYGGPEARFCPAGVYEFVPSEADESKKRLQINAQNCIHCKTCDIKDPQQNINWVTPEGGGGPKYEGM	not soluble
MAHHHHHHMSTEEQQVTQGTAHAPAPTTVKNKANSYYYWHQHEKDRAKVGDVAPMPTPYLVSKDDARAMAAPAVPTVSVSKYSWCDGDKFVSVYIDTVVPEGGTLDESSIEATFTGNSFKVTFATADEAGRTRAKSLSIRLSKRIDKDRSSTKVKPKTQQILVRLAKKVESVWLDLEGEASDQDSAADSEAADAE	soluble
SLFIDAHNHLDFFEEQEKLNKALDIIKNDNIITLGCSMDTKSYKFTKSLALKNKNIIPCFGIHPSRAHENFKNLECFDEYIRESKIIGEIGLDYVWVKEKEKYPHMKRVFTYFLEEAKKYNKITNIHTKGAESEIYNYIKKYELKTPIIHWYSGDKDTLKKLLDYGCYFTISVDIGYSKLSKEIVQLLPIDKILTETDGPTSLEWVNGDYGYPNVIKNVVKEISKIKNIQEEEVKGVIENNFKTLIRKEGITL	not soluble
MTYGVISWWDYGHWIEAVAHRMPIANPFQAGIGNKYNNVPGASSFFTAENESYAEFVAEKLNVKYVVSDIEMETGKYYAMAVWAEGDLPLAEKYYGGYFYYSPTGTFGYANSQWDIPLNSIIIPLRIPSELYYSTMEAKLHLFDGSGLSHYRMIYESDYPAEWKSYSSQVNLNNESQVLQTALYEAVMRARYGVSPTLEHHHHHH	not soluble
MSVAIDHDQTAKWDWPFQKGDGVVKVLDYEDHFEVGLEAHNFLPNEIDVKNIGEFLEIHMAHTTKDDKFGSITRSITRCYRLPKGTDPATIKSKLDGSGILHISGNKKK	not soluble
MKGAEALLRALEREGVEVIFGHPGGAIMPTYDALYDSPIRHILVRHEQGGVHAATAYARASGRVGVVMATSGPGALNLVTGLADAMMDSTPVVAITGNVPRALIGTDAFQEADVTGVTMPITKHNYLVQDVNEIPRVVKEAFHIAATGRPGPVLIDIPKDVQLAEFTGSFDVKLDLPGYKPTLKGHPKQIERALDALEKAERPVLMVGGGAQHAHAELLAFAEKTGLPVITTLMGLGAFPGNHPLWLGMPGMHGTVAANRAIHHADVILAIGLRFDDRVTGKVSRFAPHAHTIIHVDIDPAEIGKVVRTHIPIVGDSRLVLKELLKGAKALRLAAWWRELEEWRTRYPLRYRPKPHLQSQEVIRAFYEATGGHAIVTTGVGQHQMFAAQFFPVTRPRSFLTSGGLGTMGVGLPFAIGAKIARPEELVIDFDGDGSFQMTLQELATVVKYKLDVKVVILNNGYLGMVRQWQDLFHAKRYSEVYLADSNPDFARLAEAYGIKGVRVERKEDLMKGVEAVLNADGPVVAEFKVYQEEGVFPMIPAGGAAEDMILEPPEEKEEVGA	soluble
SAVKAQVLYDFTAEPGNNELTVHEGETLTITNQNVGGGWVEAQNSRGNVGLVPVDYVEVNSASAQAPATQYIDARNQGNNNSTANTQGVNGNEAWTATTWSNSYPADNWNYTEQEPAGNNGSVYSFDEEWDDDSDDGKSTGGYGGSQAEDGGTMQRSGAHSTMKLSLNKFPGFSKTPNPEVYLLTKHITKGNDRLSVYPGEVGPVWLYPQTQLDCVVADPKKGSKMYGLKSYIEYQITPNTTNRPVNHRYKHFDWLYERLVEKFACALPVPGLPDKQVTGRFEEEFIKMRMERLQGWMSRMCRHPVISNSEVFQLFLNYRDEKEWKLGKRKAEKDETVGVKIFSTIDPELPELDPAQVEQKYEVYNQFTRSMDNSVKELLAVGNLHWKRCTGPLQKEYRQIGKAFQNMSSVFNTSGYPRESTLTEALTATGKTYEEIAEVIAAQPRKDLHFLLETNNEYKGLLGCFPDTIGVHKAAIDKVKEADHLVMTNKISQQDKHTMEKNLSTMSYALQAEMNHFHSNRIYDYNRLMQFYLEEQVKFYETIAEKLKKALGQYTTI	soluble
MGSDKIHHHHHHMSWHNKVVWNEGLFLLPQLFQQQERYFEYFAHKRAAVLSPFFWGFSRYEIDQESLSFGKLVFKSGAGIFPDGTPFDVPGHTPPPPPLTIAAEHQDQVIYLAVPLRLPNTEETAFDEQAGSLARYSAFEIELRDSNAIGQGPKPVQLANMRLRLLPEKELTQSWIGIALTRVKTLHADGSVALYDGDHIPPVSQYGANPLLREWATQLHGLAKLRADALATRLSGSDGRAGAAAEVADYLLLQVLNRYEPLLEHICRIREMPPVTLYRELSMLAGELSTFVRPQTRRPRPTPGYDHAQLYASIRPLVDEVHYLLNQVLIRGAQPIPLTEQPHGIRVATMLPSELAGYSSLVLAVGAQMSPDVLQQQFASQTKISHPQRLPELIRSHLPGMTMIPLPVPPRQIPFNSSYIYYELSRTGPFWEQIAQQGGLAMHIAGHFPELKLELWGVRHK	not soluble
MGSDKIHHHHHHMLTMKPEFVAQLERVLSSVEMLLPRAVKPVNWSTCYAANWRRHSFSGFLQAVRVTDTTSLHELLGVEKQKEIMISNTRQFLKGLPANNALLWGSRGTGKSSLVKALLNEYACEGLRVIQVEKEDLIYLSDIFSAVEGEPYRFILLCDDLTFEPGELTYKILKSALDGSVYSPPENVLIYVTSNRRHLLPEYESDNIGWKLVNGELQESEATEEKIALSDRFGLWVPFHVFTQDRYLEAVRLCVEREARTREVDIPWSEQLRLDAIQWSHDKKKRCGRTAYQFSKHWVGKYLLARQAA	not soluble
MLRREFGPKYTAKINEAEENWQARAEAIKKGKKQNTWDLFEERGYVKDTAGTKEHIAELMRTRRIGAYVGIDPTAPSLHVGHLLPLMPLFWMYLEGYKAFTLIGGSTAKIGDPTGRLKSRDHLSSSDATMNMTKIHYQLKKLWENVDTQMRARGYEADWARKRGIVNNNHWWNKQPMLEVLRRVGHALRIGPMLSRDTVKNKMTQGDGVSFAEFTYPIMQGWDWFELFYQQGVQMQIGGSDQYGNIISGLEVVKAARESEPDPQERKYVTPKTALDECVGFTVPLLTDSSGAKFGKSAGNAIWLDPYQTSVFDFYGYFVRRSDQEVENLLKLFTFMPISEITKTMEEHIKDPSKRVAQHTLAREVVTLVHGKQEASAAEDQHRMMYTGQMTI	soluble
SNGAGLAADIQLQRDAKTPLALSAKLAEVFFRTGNPLAATLADWPGLLELGNGRATAAAGWKLDAAGGSSLDLDLTLKGLDGIYDRSELKGLGGSLALRLRGGQLSLDSPGLSLAEANPGLPLGPVSFRGRYEAPLSAPGSGRLSWQTLQSGLFGGQASVPAGSIRLGQAEQKFALRIQGIQLGEIFRVYPAEGLAGEGTLDGELPLMLNRWKPSVSGGQVKAREPGYLRFRSAKIEALGRSNPGMKLVADALDDFHYDVLQSSVDYHENGKLLLGLRLQGSNPDLEKGRPVNLNVNLEEDIPALLTSLQLSDRVSETIRQ	not soluble
MHHHHHHSSGVDLGTENLYFQSMSRVLQAEELHEKALDPFLLQAEFFEIPMNFVDPKEYDIPGLVRKNRYKTILPNPHSRVCLTSPDPDDPLSSYINANYIRGYGGEEKVYIATQGPIVSTVADFWRMVWQEHTPIIVMITNIEEMNEKCTEYWPEEQVAYDGVEITVQKVIHTEDYRLRLISLKSGTEERGLKHYWFTSWPDQKTPDRAPPLLHLVREVEEAAQQEGPHCAPIIVHCSAGIGRTGCFIATSICCQQLRQEGVVDILKTTCQLRQDRGGMIQTCEQYQFVHHVMSLYEKQLSHQS	soluble
NFVAPQDRIATFDNDGTLWSEKPMYFQILFMLDQIKEQAASHPDWKTTKPYSLVLSGQIDKLSLEDVLTMVQKTHSGMSSDEFTSIVQAWISTAKHPATGRPYTDMVYQPMLELLDYLDSNGFKNFIVSGGGNAFMRAWATDVYNIPSERIIGTRLSTEFVNVDGSYQVKRVPGIEVNNDKAEKPQQIYQHIGKRPIASFGNSDGDLQMLQWTTSGT	not soluble
MELFTFIPYFLLLEREESDRNTLANANTEFIREVYELQRVEKDVTLVFFQLQYLSCKLVILREHYRTAQKEHLPCYAYIIGTLEYLKGLLDRCRFIHKCGSAIAPACLPTTEGDPPVCWTAEVICLMELLYACHELKMFNGGEVTLGRVVEYVCHVLGVNVKNASSYYARMRRRKAGDRTYFIDRLREVLLKRMEDDDEGHRRRNR	not soluble
SLVYDGNNKLIADLGSEKRESVSADSIPLNLVNAITSIEDKRFFKHRGVDIYRILGAAWHNLVSSNTQGGSTLDQQLIKLAYFSTNKSDQTLKRKSQEVWLALQMERKYTKEEILTFYINKVYMGNGNYGMRTTAKSYFGKDLKELSIAQLALLAGIPQAPTQYDPYKNP	not soluble
GTPEQLQAWRWEREIDERNRPLSDEELDAMFPEGYKVLPPPAGYVPI	soluble
MGSDKIHHHHHHMKELKIIFIPGWGMEEGVWTLVLPYFKEYSVQCINWRNVKEQSEFAGRIIDVAKDENVILVGWSLGALAAVQAHKKIQTKGIVLIGGTPKFTNTSDYTSGWNALHVERLKKNVARKKEDTLKRFYENMFTKDELKENTSFEEIALNFKGDSIQSLQLGLDYLIETDMRNELIDVKVPLLLLHGEQDVICPLSAAHSMTENANAKLKVVSEAGHALCVTNFEYCANEIIQFVEGIRHDQQNVTTKTI	not soluble
MGSDKIHHHHHHMKTERILGALYGQALGDAMGMPSELWPRSRVKAHFGWIDRFLPGPKENNAACYFNRAEFTDDTSMALCLADALLEREGKIDPDLIGRNILDWALRFDAFNKNVLGPTSKIALNAIRDGKPVAELENNGVTNGAAMRVSPLGCLLPARDVDSFIDDVALASSPTHKSDLAVAGAVVIAWAISRAIDGESWSAIVDSLPSIARHAQQKRITTFSASLAARLEIALKIVRNADGTESASEQLYQVVGAGTSTIESVPCAIALVELAQTDPNRCAVLCANLGGDTDTIGAMATAICGALHGVNAIDPALKAELDAVNQLDFNRYATALAKYRQQREAV	not soluble
MDNCNAWDKLLSQNESTINSTETATITAIIYSPSSKTLHQFINICFPEGSNSILDTTLINYATIGWTNDLKENYSVDVYTLIRNTDDALDLLKPFLQEHSSKVRWLILLDWTLNDQKLWLNELSYAFNKIKQLNDDNEFSVWCLNSGEILNLQRHTTVWQSVHIDFILQTLRSFCYFNDSSLFYICEDHTEEKREEAQRLKYQELLKHFCEDRDMKDHIEMVKRSEILIPKGCDSIGLIKTVDERFEPTEVKEQHFLARYMDFIPTIDKIREDRKTTSGIDLDKLYPLEVFKVNIQEELGKMFAKYRENSRI	soluble
MSSATASIKLSNGVEMPVIGLGTWQSSPAEVITAVKTAVKAGYRLIDTASVYQNEEAIGTAIKELLEEGVVKREELFITTKAWTHELAPGKLEGGLRESLKKLQLEYVDLYLAHMPAAFNDDMSEHIASPVEDVWRQFDAVYKAGLAKAVGVSNWNNDQISRALALGLTPVHNSQVELHLYFPQHDHVDFCKKHNISVTSYATLGSPGRVNFTLPTGQKLDWAPAPSDLQDQNVLALAEKTHKTPAQVLLRYALDRGCAILPKSIQENRIKENFEVFDFSLTEEDIAKLEESKNSQRLFLQDFMTGHPEDAFAAERK	soluble
